Tested on: apoptosis induced by AcMNPV p35 mutant virus in Sf-21 cells
Assay: Rescue of AcMNPV p35-deleted virus in Sf-21 cells (occlusion body formation)
Format: cell-based, Spodoptera frugiperda
Conditions: plasmid co-transfected with AcMNPV p35 mutant viral DNA into Sf-21 cells; observed 72 hrs post-transfection
Protocol: Insect Sf-21 cells were maintained at 27° C. in Excell 401 media (JHR Bioscience) supplemented with 2.5% fetal bovine serum. vP35del, containing a deletion in the p35 gene, was propagated in TN-368 cells (Clem, R. J., et al., (1991) Science 254, 1388-1390). Plasmids encoding full-length or deletion mutants of SfIAP (1 μg) were co-transfected with 1 μg vP35del viral DNA into Sf-21 cells using Lipofectin from Gibco. Occlusion body formation was observed under light microscopy 3 days post-transfection.
SfIAP was tested to see if it also complements. p35-deficiency, preventing apoptosis by this mutant virus, thereby allowing its replication in insect cells. Plasmids containing full-length SfIAP or fragments of SfIAP comprising the two BIRs or the RING domain were co-transfected with AcMNPV p35 mutant viral DNA into Sf-21 cells. Cells were observed 72 hrs post-transfection. […] Thus, analogous to CpIAP and OpIAP, BIR and RING domains of SfIAP are required in combination for inhibition of apoptosis induced by AcMNPV p35 mutant virus.

B1: SfIAP: cellular IAP cloned from Spodoptera frugiperda, protein of 377 amino acids (SEQ ID NO:3); GST-fusion when recombinant (protein, listed as Spodoptera frugiperda)
chain: MWSCSLPCWNTKKSGLQMDITKVASNGSSSTLTLFKSGSLEAKIRPLAPLMLPTPSYDSNAGSPSLSPSTPCSSSSFSIDKTDNHDTFGFSADTVDMRKEDERMKTFEKWPVSFLSGEQLARNGFYYLGRRDEARCAFCKVEIMRWVEGDDPAKDHQRWAPQCPFVRKLNGTAAADTGSSGQDECGARAAPSGTSPPRMAGPVHPRYASEAARLRSFKDWPRCMRQKPEELAEAGFFYTGQGDKTKCFYCDGGLKDWENHDVPWEQHARWFDRCAYVQLVKGREYVQKVISEACEVSASEAERDVAPARTAEPSPPAEAPENSVDDSKLCKICYAEERNVCFVPCGHVVACAKCALAADKCPMCRRTFQNAVRLYFS
modifications: GST fusion when recombinant; fall armyworm inhibitor of apoptosis protein (SfIAP)
For B1, the “complementation of p35 deficiency (rescue of mutant virus replication, occlusion body formation)” value was “complemented p35 deficiency”.

Reference: patent publication US6570069B1, “Nucleic acids encoding plant inhibitors of apoptosis and transgenic cells and plants expressing them” (priority 2000, dated 2003)
